Measured values as given in patent US20200400675A1 (ECS PROGASTRIN, published 2020).

B1: mAb4 (hybridoma 20D2C3G2) (antibody, V domains shown)
VH: QVQLQQSGAELMKPGASVKISCKATGYTFSSSWIEWLKQRPGHGLEWIGEFLPGSGSTDYNEKFKGKATFTADTSSDTAYMLLSSLTSEDSAVYYCATDGNYDWFAYWGQGTLVTVSA
VL: DLVMTQTPLSLPVSLGDQASISCRSSQSLVHSSGVTYLHWYLQKPGQSPKLLIYKVSNRFSGVPDRFSGSGSGTDFTLKISRVEAEDLGVYFCSQSTHVPPTFGSGTKLEIK
notes: Murine monoclonal antibody
B2: mAb16 (hybridoma 1E9D9B6) (antibody, V domains shown)
VH: QVQLQQSGAELVKPGASVKLSCKASGYTFTSYYMYWVKQRPGQGLEWIGEINPSNGGTNFNEKFKSKATLTVDKSSSTAYMQLSSLTSEDSAVYYCTRGGYYPFDYWGQGTTLTVSS
VL: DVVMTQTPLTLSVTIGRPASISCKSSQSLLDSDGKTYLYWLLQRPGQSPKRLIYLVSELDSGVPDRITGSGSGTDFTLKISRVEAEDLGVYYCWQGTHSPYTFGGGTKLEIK
notes: Murine monoclonal antibody
B3: mAb13 (hybridoma 2C6C3C7) (antibody, V domains shown)
VH: EVQLVESGGGLVQPGGSLKLSCAASGFIFSSYGMSWVRQSPDRRLELVASINTFGDRTYYPDSVKGRFTISRDNAKNTLYLQMTSLKSEDTAIYYCARGTGTYWGQGTTLTVSS
VL: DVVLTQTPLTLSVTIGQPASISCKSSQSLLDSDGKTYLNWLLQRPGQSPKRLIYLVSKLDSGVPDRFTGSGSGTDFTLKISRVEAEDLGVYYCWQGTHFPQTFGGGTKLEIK
notes: Murine monoclonal antibody
B4: mAb3 (hybridoma 6B5B11C10) (antibody, V domains shown)
VH: EVQLQQSGTVLARPGASVKMSCKASGYIFTSYWVHWVKQRPGQGLEWIGGFYPGNSDSRYNQKFKGKATLTAVTSASTAYMDLSSLTNEDSAVYFCTRRDSPQYWGQGTTLTVSS
VL: DVLMTQTPLSLPVSLGDQASISCRSSQSIVHSNGNTYLEWYLQKPGQSPKLLIYKVSNRFSGVPDRFSGSGSGTDFTLKISRLEAEDLGVYYCFQGSHVPFTFGGGTKLEIK
notes: Murine monoclonal antibody
B5: mAb19 (hybridoma 1B3B4F11) (antibody, V domains shown)
VH: DVQLQESGPGLVKPSQSLSLTCTVTGYSITSDYAWNWIRQFPGNKLEWMGYISFSGYTSYNPSLKSRISVTRDTSRNQFFLQLTSVTTEDTATYYCAREVNYGDSYHFDYWGQGTIVTVSS
VL: QLALTQSSSASFSLGASAKLTCTLSSQHRTYTIEWYQQQSLKPPKYVMEVKKDGSHSTGHGIPDRFSGSSSGADRYLSISNIQPEDEAIYICGVGDAIKGQSVFVFGGGTKVTVL
notes: Murine monoclonal antibody

Target: T1, human progastrin (human, UniProt P01350 22-101)
T1 construct: also called hPG; PG
T1 sequence: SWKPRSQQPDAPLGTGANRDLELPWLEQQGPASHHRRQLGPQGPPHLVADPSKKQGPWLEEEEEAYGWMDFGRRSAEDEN
Test: epitope mapping (no details given)

Binder	binding result
B1	binds
B2	binds
B3	binds
B4	binds
B5	binds
